Experiments:
[1] = system: T1, MG31-1 (uncultivated microorganism (metagenomic)); assay: cell_activity; conditions: HEK cells
T1 sequence: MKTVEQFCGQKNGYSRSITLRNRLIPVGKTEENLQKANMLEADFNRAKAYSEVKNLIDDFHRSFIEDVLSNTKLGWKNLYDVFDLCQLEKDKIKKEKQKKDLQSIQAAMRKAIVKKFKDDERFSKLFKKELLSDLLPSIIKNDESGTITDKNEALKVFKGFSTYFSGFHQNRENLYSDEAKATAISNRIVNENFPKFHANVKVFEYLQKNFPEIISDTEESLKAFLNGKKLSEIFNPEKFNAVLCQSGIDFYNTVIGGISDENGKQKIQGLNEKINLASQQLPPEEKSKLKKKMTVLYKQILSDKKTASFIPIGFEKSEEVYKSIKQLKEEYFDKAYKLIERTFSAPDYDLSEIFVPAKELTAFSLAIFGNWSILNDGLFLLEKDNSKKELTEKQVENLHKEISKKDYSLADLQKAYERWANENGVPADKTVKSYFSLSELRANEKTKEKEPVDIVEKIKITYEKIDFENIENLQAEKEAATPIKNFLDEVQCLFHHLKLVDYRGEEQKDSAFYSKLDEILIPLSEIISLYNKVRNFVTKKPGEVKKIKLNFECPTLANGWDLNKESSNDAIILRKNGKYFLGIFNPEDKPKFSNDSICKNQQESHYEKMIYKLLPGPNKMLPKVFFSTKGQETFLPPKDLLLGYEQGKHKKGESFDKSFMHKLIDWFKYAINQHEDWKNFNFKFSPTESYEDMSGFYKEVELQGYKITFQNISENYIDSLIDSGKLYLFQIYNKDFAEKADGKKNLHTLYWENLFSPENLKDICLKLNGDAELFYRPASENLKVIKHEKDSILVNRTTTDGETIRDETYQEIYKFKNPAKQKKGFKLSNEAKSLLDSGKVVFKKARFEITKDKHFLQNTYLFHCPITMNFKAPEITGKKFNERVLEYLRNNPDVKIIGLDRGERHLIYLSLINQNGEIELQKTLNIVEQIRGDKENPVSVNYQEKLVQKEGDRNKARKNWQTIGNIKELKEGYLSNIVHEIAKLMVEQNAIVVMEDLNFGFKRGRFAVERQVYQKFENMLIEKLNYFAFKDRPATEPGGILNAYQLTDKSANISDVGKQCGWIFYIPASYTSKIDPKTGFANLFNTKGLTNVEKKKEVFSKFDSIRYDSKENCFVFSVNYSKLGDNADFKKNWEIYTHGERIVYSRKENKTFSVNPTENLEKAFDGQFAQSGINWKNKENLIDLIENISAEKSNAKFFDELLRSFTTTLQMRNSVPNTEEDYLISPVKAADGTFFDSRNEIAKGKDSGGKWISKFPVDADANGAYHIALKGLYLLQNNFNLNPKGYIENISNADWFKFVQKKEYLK

[2] = system: T2, MG29-1 (uncultivated microorganism (metagenomic)); assay: cell_activity
T2 sequence: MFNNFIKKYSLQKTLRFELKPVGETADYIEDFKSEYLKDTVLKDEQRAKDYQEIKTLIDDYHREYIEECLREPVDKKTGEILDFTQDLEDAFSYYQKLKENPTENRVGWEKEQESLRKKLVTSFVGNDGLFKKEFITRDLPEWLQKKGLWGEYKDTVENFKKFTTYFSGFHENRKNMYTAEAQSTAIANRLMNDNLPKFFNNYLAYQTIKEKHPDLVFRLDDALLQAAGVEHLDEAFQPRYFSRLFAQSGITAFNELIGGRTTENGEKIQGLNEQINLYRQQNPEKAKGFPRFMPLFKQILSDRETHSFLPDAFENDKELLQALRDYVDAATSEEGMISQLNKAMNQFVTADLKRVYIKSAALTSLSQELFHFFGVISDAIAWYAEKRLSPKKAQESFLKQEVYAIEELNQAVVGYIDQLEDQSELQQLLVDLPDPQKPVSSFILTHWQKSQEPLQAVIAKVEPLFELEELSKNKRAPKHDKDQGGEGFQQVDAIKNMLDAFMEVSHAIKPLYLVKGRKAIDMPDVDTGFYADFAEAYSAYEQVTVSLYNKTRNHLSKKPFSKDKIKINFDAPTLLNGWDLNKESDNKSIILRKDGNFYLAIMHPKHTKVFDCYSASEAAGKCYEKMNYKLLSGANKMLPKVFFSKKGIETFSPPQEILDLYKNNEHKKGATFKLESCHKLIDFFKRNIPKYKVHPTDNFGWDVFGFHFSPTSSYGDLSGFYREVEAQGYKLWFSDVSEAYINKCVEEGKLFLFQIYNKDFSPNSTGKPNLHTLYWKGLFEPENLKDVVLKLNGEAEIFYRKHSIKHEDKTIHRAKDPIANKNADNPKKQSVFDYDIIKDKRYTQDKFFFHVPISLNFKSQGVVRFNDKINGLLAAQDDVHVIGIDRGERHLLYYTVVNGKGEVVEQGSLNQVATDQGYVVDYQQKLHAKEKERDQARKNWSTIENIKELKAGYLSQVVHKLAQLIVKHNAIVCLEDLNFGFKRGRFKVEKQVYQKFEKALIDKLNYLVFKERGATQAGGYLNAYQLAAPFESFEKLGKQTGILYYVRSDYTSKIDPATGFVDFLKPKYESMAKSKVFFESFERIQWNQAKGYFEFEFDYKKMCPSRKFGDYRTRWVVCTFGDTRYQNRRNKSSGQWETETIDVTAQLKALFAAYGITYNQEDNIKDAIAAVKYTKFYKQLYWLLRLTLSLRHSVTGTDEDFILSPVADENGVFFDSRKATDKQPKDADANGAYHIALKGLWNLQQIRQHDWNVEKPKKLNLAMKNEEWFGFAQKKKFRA

## AAUUUCUACUAUUGUAGAUNGGAGGUCAGAAAUAGGGGGUCCAG / TAGCTGTTTGGGAGGTCAGAAATAGGGGGTCCAG / CTGGACCCCCTATTTCTGACCTCCCAAACAGCTA [MG31-1 guide VEGFA target7 ; VEGFA target7]
[1]; PAM YTTn (TTTG), SD 8.67
  activity: 17.4 % NHEJ

## AAUUUCUACUAUUGUAGAUNGAAAGGGGGUGGGGGGAGUUUGCU / ATGGGCTTTGGAAAGGGGGTGGGGGGAGTTTGCT / AGCAAACTCCCCCCACCCCCTTTCCAAAGCCCAT [MG29-1 guide VEGFA target8 ; VEGFA target8]
[2]; PAM KTTG (TTTG), HEK293T plasmid transfection, SD 10.17
  activity: 30.1 % NHEJ

## AAUUUCUACUAUUGUAGAUNCCGAUCGUUACAGGAAAAUCUG / GTTCCCGATCGTTACAGGAAAATCTG / CAGATTTTCCTGTAACGATCGGGAAC [mAlb29-1-2 sgRNA ; mouse albumin intron 1 mAlb29-1-2 site]
[2]; PAM GTTC, Hepa1-6 RNP nucleofection, guide backbone inferred
  activity: 0 % indel

## AAUUUCUACUAUUGUAGAUNCUUGGACCUUGUUUUGCUUACUGU / ACAAATTTTACTTGGACCTTGTTTTGCTTACTGT / ACAGTAAGCAAAACAAGGTCCAAGTAAAATTTGT
[1]; PAM TTTA, SD 0.75
  activity: -0.32 % NHEJ

## AAUUUCUACUAUUGUAGAUNGCCAGAGCCGGGGUGUGCAGACGG / TCCCTCTTTAGCCAGAGCCGGGGTGTGCAGACGG / CCGTCTGCACACCCCGGCTCTGGCTAAAGAGGGA [MG31-1 guide VEGFA target9 ; VEGFA target9]
[1]; PAM YTTn (TTTA), SD 1.92
  activity: 6.72 % NHEJ

## AAUUUCUACUAUUGUAGAUNCGCACUAAGGAAAGUGCAAAGU / TTTGCGCACTAAGGAAAGTGCAAAGT / ACTTTGCACTTTCCTTAGTGCGCAAA [hAlb_g87 sgRNA ; human albumin intron 1 g87 site]
[2]; PAM TTTG, RNP nucleofection HepG2, guide backbone inferred
  activity: 97 % indel

## AAUUUCUACUAUUGUAGAUNUGAAGUCUUACAAGGUUAUCUUAU / TTTGTATTTGTGAAGTCTTACAAGGTTATCTTAT / ATAAGATAACCTTGTAAGACTTCACAAATACAAA [MG31-1 guide albumin target4 ; Albumin target4]
[1]; PAM YTTn (TTTG), SD 2.72
  activity: 7.05 % NHEJ

## AAUUUCUACUAUUGUAGAUNUGUGAGGGAGCACCGUUCUCUAGA / TACATAGTTGTGTGAGGGAGCACCGTTCTCTAGA / TCTAGAGAACGGTGCTCCCTCACACAACTATGTA
[2]; PAM KTTG (GTTG), HEK293T plasmid transfection, SD 1.57
  activity: 30.4 % NHEJ
